Laboratory results as given in patent US20250122303A1, “TREATMENT AND PREVENTION OF CANCER USING HER3 ANTIGEN-BINDING MOLECULES” (Hummingbird Bioscience Pte. Ltd., priority 2021, published 2025).

Experiments:
human HER2 = target: T1, human HER2 (Homo sapiens, UniProt P04626); assay: ELISA specificity, human HER2; format: binding; settings: antibody up to 10 μg/ml
T1 construct: purchased Sino Biological Inc., China
Method: ELISAs were used to determine the binding specificity of the antibodies. The antibodies were analysed for binding to human HER3 polypeptide, as well as respective mouse, rat and monkey homologues of HER3 (Sino Biological Inc., China). The antibodies were also analysed for their ability to bind to human EGFR and human HER2 (Sino Biological Inc., China).
ELISAs were carried out according to standard protocols. Briefly, 96-well plates (Nunc, Denmark) were coated with 0.1 μg/ml of target polypeptide in phosphate-buffered saline (PBS) for 16 h at 4° C. After blocking for 1 h with 1% BSA in Tris buffer saline (TBS) at room temperature, the anti-HER3 antibody was serially diluted with the highest concentration being 10 μg/ml, and added to the plate. Post 1 h incubation at room temperature, plates were washed three times with TBS containing 0.05% Tween 20 (TBS-T) and were then incubated with a HRP-conjugated anti-His antibody (Life Technologies, Inc., USA) for 1 h at room temperature. […] The reaction was stopped with 2M H2SO4, and OD was measured at 450 nm.
The antibodies were analysed for their ability to bind to human HER3 polypeptide as well as human HER1 (EGFR) and human HER2 (Sino Biological Inc., China). […]
ELISAs were carried out according to standard protocols. […] The reaction was stopped with 2M H2SO4, and OD was measured at 450 nm.

[1] = test system: HCC-95 cell-line derived mouse model of squamous cell lung carcinoma; assay: HCC-95 cell-line derived xenograft model; format: in vivo; settings: HCC-95, IP biweekly 500 μg, 4 doses
Method: (§1) Tumor volumes were measured 3 times a week using a digital caliper and calculated using the formula [L ×W2/2]. Study End point was considered to have been reaches once the tumors of the control arm measured >1.5 cm in length.
The model was established by subcutaneous injection of 1×10^6 HCC-95 cells into the right flanks of female NCr nude mice (n=6 mice per treatment group).
10D1 was administered IP, biweekly at 500 μg per dose (for a total of 4 doses); a control treatment group received an equal volume of PBS.

FaDu cells = assay: CCK-8 proliferation assay, FaDu; format: cell-based, human; settings: 5 days
Method: Briefly, N87 and FaDu cells were treated with serially diluted concentrations of anti-HER3 antibody 10D1, starting from 100 μg/ml with a 9-point half log dilution. Cell proliferation was measuring using the CCK-8 proliferation assay (Dojindo, Japan) after a period of 5 days, in accordance with the manufacturer's instructions. Briefly 1× CCK-8 solution was added to each well followed by incubation for 2 h at 37° C. The OD was then measured at 450 nm.

[2] = test system: SNU16 cell-line derived mouse gastric carcinoma model; assay: SNU16 cell-line derived xenograft model; format: in vivo; settings: SNU16, IP biweekly 500 μg, 9 doses
Method: as §1
The model was established by subcutaneous injection of 1×10^6 SNU16 cells into the right flank (n=6 mice per treatment group).
10D1 was administered IP, biweekly at 500 μg per dose (for a total of 9 doses); a control treatment group received an equal volume of PBS.

[3] = test system: ACHN cell-line derived mouse model of renal cell carcinoma; assay: ACHN cell-line derived xenograft model; format: in vivo; settings: IP biweekly 500 μg, 7 doses
Method: as §1
The model was established by subcutaneous injection of 1×10^6 ACHN cells into the right flanks of female NCr nude mice (n=6 mice per treatment group).
10D1 was administered IP, biweekly at 500 μg per dose (for a total of 7 doses); a control treatment group received an equal volume of PBS.

[4] = target: T2, human HER3 (HEK293 HER3 O/E cells) (Homo sapiens, UniProt P21860); assay: Cell surface antigen-binding by flow cytometry
T2 construct: expressed in transfected cells; host or cells: HEK293
Method: The cells were washed thrice with FACS buffer (PBS with 5 mM EDTA and 0.5% BSA) and resuspended in FITC-conjugated anti-FC antibody (Invitrogen, USA) for 40 min at 2-8° C. Cells were washed again and resuspended in 200 μL of FACS flow buffer (PBS with 5 mM EDTA) for flow cytometric analysis using MACSQuant 10 (Miltenyi Biotec, Germany). After acquisition, all raw data were analyzed using Flowlogic software. Cells were gated using forward and side scatter profile percentage of positive cells was determined for native and overexpressing cell populations.
The cells were washed with buffer (PBS with 2 mM EDTA and 0.5% BSA) and resuspended in FITC-conjugated anti-FC antibody (Invitrogen, USA) at 10 μg/ml for 20 min at 4° C. Cells were washed again and resuspended in 200 μL of FACS flow buffer (PBS with 5 mM EDTA) for flow cytometric analysis using MACSQuant 10 (Miltenyi Biotec, Germany). Unstained WT and transfected HEK293 cells were included in the analysis as negative controls. After acquisition, all raw data were analyzed using Flowlogic software. Cells were gated using forward and side scatter profile percentage of positive cells was determined for native and overexpressing cell populations.

B1: 10D1: anti-HER3 antibody clone, VH SEQ ID NO:24, VL SEQ ID NO:74; [1] of Example 2.2 (antibody, V domains shown)
VH: DVQLQESGPDLVKPSQSLSLTCTVTGYSITSGYSWHWIRQFPGNKLEWMGSIHYSGGTNYNPSLKSRISITRDTSKNQFFLQLNSVTTEDTATYFCARMTTAPRYPFDYWGQGTTLTVSS
VL: DIVMTQSQKFMSTSVGDRVSVTCKASQIVGSNVAWYQQKPGQSPKPLIYSASYRYSGVPDRFTASGSGTDFTLTITNVQSEDLAEYFCQQYSSHPLTFGAGTKLELK
binding to human HER2 (human HER2): not to bind | inhibition of tumor growth [1]: ~90% | cell proliferation (FaDu cells): dose-dependent inhibition of cell proliferation | inhibition of tumor growth [2]: ~68% | inhibition of tumor growth [3]: ~61% | extent of binding to human HER3-expressing cells ([4]; 10 μg/ml antibody): bind to human HER3-expressing cells to a similar extent | extent of binding to human HER3-expressing cells ([4]; 20 μg/ml antibody): bind to human HER3-expressing cells to a similar extent
